{"source": "paper PMC8517087", "about": "“Analysis of M4 Transmembrane Segments in NMDA Receptor Function: A Negative Allosteric Modulatory Site at the GluN1 M4 is Determining the Efficiency of Neurosteroid Modulation” (Frontiers in Pharmacology, 2021)", "key": {"[1]": {"target": "GluN1/GluN2A^ΔM4 receptor (rat | mouse) (UniProt P35439)"}, "[2]": {"target": "GluN1^ΔM4/GluN2A^F637A receptor (rat | mouse) (UniProt P35439)"}, "[3]": {"target": "GluN1^ΔM4/GluN2A receptor (M4-truncated core receptor) (rat | mouse) (UniProt P35439)"}}}
{"substance": "M4^N1, isolated GluN1 M4 fragment (GluN 1^802–925) (from UniProt P35439 802-925) (domain or fragment)", "values": [{"measurement": "rescue of agonist-induced current: Imax by TEVC in oocytes co-expressing M4^N1 with GluN1/GluN2A^ΔM4", "setting": "[1]", "value": 0.016, "unit": "µA"}, {"measurement": "rescued Imax current (TEVC) of GluN1^ΔM4/GluN2A^F637A co-expressed with M4^N1, normalised to the unmutated receptor", "setting": "[2]", "value": 50, "unit": "% decrease"}]}
{"substance": "M4^N2A, isolated GluN2A M4 fragment (GluN2A^804–1464) (from UniProt P35436 804-1464) (domain or fragment)", "values": [{"measurement": "rescue of agonist-induced current: Imax by TEVC in oocytes co-expressing M4^N2A with GluN1/GluN2A^ΔM4", "setting": "[1]", "value": 0.24, "unit": "µA"}]}
{"substance": "M4^N1-F817A (from UniProt P35439 802-925) (domain or fragment)", "values": [{"measurement": "rescue of agonist-induced current (TEVC) in oocytes co-expressing M4^N1-F817A with GluN1^ΔM4/GluN2A, compared with wt M4^N1", "setting": "[3]", "value": 90, "unit": "% decrease"}]}
